Measurements as given in the supplement of paper PMC9732359.
± gives the uncertainty stated by the source.

Test: protein stability index of a GFP-peptide fusion (yeast GPS) (PSI 1-4); higher = more stable; sorted into four equal gates, so the index is relative within each strain
Details: doa10∆
In short: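 The protein stability index of a peptide was calculated by multiplying its read frequency in each gate by that gate's number and adding the products. The peptides were tiled 17-residue stretches of yeast proteins, fused downstream of GFP on a Cherry-expressing plasmid and carried in yeast as a pooled library. Mid-log cultures in leucine-free medium were sorted into four equal gates by GFP/Cherry ratio, and each gate's plasmids were PCR-amplified and Illumina-sequenced.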

Row | Sequence | protein stability index
1 | QQNIKFRRDFLLREYDI [YJL039C/NUP192] | 2.5 ± 0.058

Same assay, conditions: pdr5∆

Row | Sequence | protein stability index
2 | PSHYPHPYEYEIDHQEY [RRP6] | 2.58 ± 0.055
3 | PSKKRRRDFGAPANKRP [SMD1] | 3.02 ± 0.1
4 | PSLRDRRERRLIFGTIA [RPT3] | 2.04 ± 0.099
5 | PSQFGMLCTADTPEGEA [RET1] | 1.7 ± 0.23
6 | PSQSEEQKGQMAKKEGT [MED4] | 3 ± 0.22
7 | PSRRERRREQTTYSVDD [ISW2] | 3 ± 0.062
8 | PSTGGVKKPHRYKPGTV [HHT1] | 1.62 ± 0.057
9 | PSTNKKLSISNAASQQP [GAL11] | 2.8 ± 0.066
10 | PSYAERQSSDESDNYRL [YML031W/NDC1] | 2.32 ± 0.043
11 | PTATPSPFRPLEKTSRI [YMR153W/NUP53] | 2.51 ± 0.058
12 | PTGPKTAIDKNGNITYS [FAS2] | 3.08 ± 0.057
13 | PTKAAQRARDQDSIDIS [GAL11] | 3.16 ± 0.081
14 | PTLFDLAFNYITYDKQE [SRP68] | 1.72 ± 0.064
15 | PTLVRSVISGNLSLYEA [CSN12] | 3.05 ± 0.092
16 | PTPSVKTEPVGTGLQSY [RPC53] | 3.23 ± 0.13
17 | PTVDEQRQYKVQLLLHI [SNF11] | 1.95 ± 0.082
18 | PVDITMMENYQNISPVY [PRP8] | 1.99 ± 0.06
19 | PVEKVKEHDEIEEQGDA [DPB4] | 3.34 ± 0.12
20 | PVIDTQIANEFNTQQGI [YDL116W/NUP84] | 2.99 ± 0.057
21 | PVKSIRARLKGKEGRIR [RPO21] | 3.22 ± 0.11
22 | PYCPIASITGTGSNDRC [YMR129W/POM152] | 1.82 ± 0.1
23 | PYFEQKIQETELKIRSK [RPT6] | 2.84 ± 0.1
24 | PYGSFHQQQLQQPHYIQ [DSN1] | 2.98 ± 0.052
25 | PYKYRLREEIFIANEGV [RPL2A] | 2.94 ± 0.085
26 | PYMNHKNTSSMDFLNSM [GAL11] | 1.69 ± 0.055
27 | QAGVTKASVTIVFDNTD [SMC2] | 2.76 ± 0.058

Row | Sequence | protein stability index
28 | QAPTELELQVAQAFVEL [RPS7A] | 2.82 ± 0.063
29 | QCIVYPNCLFILKLLNG [SOH1] | 1.51 ± 0.061
30 | QDDDDYVDTATAKRKSR [IRR1] | 2.94 ± 0.054
31 | QDDEYVKDWLYDSRPLE [PRP8] | 3.43 ± 0.11
32 | QDEEQTEHLTELSDNEE [YCG1] | 3.37 ± 0.075
33 | QDNHHITKVTENLFSKE [YMR129W/POM152] | 2.8 ± 0.066
34 | QDPKTLVALLSRDLWCF [SSN2] | 1.34 ± 0.043
35 | QDQYKEGIKVVDIDDPD [SNF2] | 2.45 ± 0.086
36 | QDRLSDLIHKSEAFPSL [SMC4] | 2.7 ± 0.11
37 | QDYYIIGANIYQSPTIF [MED6] | 2.42 ± 0.055
38 | QEFFFHAMGGREGLIDT [RPO21] | 2.17 ± 0.08
39 | QEHTIFTQLKKNIPKTR [SNU114] | 2.16 ± 0.05
40 | QEKESQIQLAESELSLL [SMC4] | 2.95 ± 0.051
41 | QENGTIFRGSLIGCIPY [YDL088C/ASM4] | 2.57 ± 0.052
42 | QEQVQDYVNKTNSHLPA [FAS1] | 2.44 ± 0.1
43 | QESFNSVQNLDQLLTDL [NUT1] | 3.2 ± 0.095
44 | QFEKSRKVSGPRALQPS [RET1] | 3.19 ± 0.11
45 | QFNKILPEPTEGFAADD [FAS1] | 3.07 ± 0.08
46 | QFQRLAPSLTVPPIASP [PRE2] | 2.03 ± 0.049
47 | QGDGLLTKLQKYGAAVR [RPN7] | 2.89 ± 0.14
48 | QGIVRVYSKQATFLLTD [MCD1] | 2.29 ± 0.047
49 | QGKHTKFENDELAESTT [LRP1] | 2.88 ± 0.12
50 | QGNYVTEDIREGDQAEV [YMR129W/POM152] | 3.32 ± 0.073
51 | QGRFRGNLSGKRVDFSG [RPO31] | 2.12 ± 0.11
52 | QGRRLGESIMSEEPTDF [MCD1] | 3.36 ± 0.13
53 | QGRRNSRNFSTRDEETT [SIR4] | 3.11 ± 0.055

Row | Sequence | protein stability index
54 | QHPFPLAHSQHRCAIRS [SSN2] | 1.42 ± 0.042
55 | QHTSFQEAVNSLKGYKI [CSI1] | 3.21 ± 0.065
56 | QIAAQSPVELSRMFEEV [SMC1] | 3.2 ± 0.079
57 | QIDQLNRLLPNLPEEER [GRR1] | 2.12 ± 0.064
58 | QIFVRGSQIKFIVVPDL [SMD3] | 2.35 ± 0.06
59 | QIILAYIKYNILLTSIS [SRP68] | 1.25 ± 0.074
60 | QIILDRFAPDNQVTDSS [SIR3] | 2.93 ± 0.13
61 | QIIVTDGKLEPSTRSNF [YJL039C/NUP192] | 3.13 ± 0.13
62 | QIKTLPEQYSDILLNER [AAR2] | 3.24 ± 0.06
63 | QIMQNPTHYKIPAWFLN [RPS18A] | 1.99 ± 0.071
64 | QIQFTPLIKKIKYEPRF [SMC3] | 2.52 ± 0.045
65 | QIQKNVDLLQFPWLNAI [POP3] | 2.09 ± 0.073
66 | QIRACKDLKHIIYYKFN [PRP8] | 1.73 ± 0.037
67 | QISLNRLIDSMKQYSYL [RRI1] | 2.29 ± 0.16
68 | QITKFPKYRDNLATWYH [SSN3] | 2.88 ± 0.077
69 | QKDKSDTYKRFKYLLGV [ISW2] | 1.4 ± 0.062
70 | QKEEGRSFTKAIEDAKK [YLR335W/NUP2] | 3.06 ± 0.085
71 | QKLLKQLDSDANKLSKS [ISW2] | 2.89 ± 0.053
72 | QKVSQLESADKQLEKRD [POP4] | 3.35 ± 0.083
73 | QKYNLLHVLPTLNSRAL [SNM1] | 1.74 ± 0.078
74 | QKYTKEMIDSHIKEASE [SNF2] | 2.88 ± 0.054
75 | QLAPSSVDPQSSSTQNV [DIS3] | 3.21 ± 0.079
76 | QLDGFSSDDRVKVLAAT [RPT5] | 2.83 ± 0.096
77 | QLEEDENITNKVTEKVL [CSI1] | 3.2 ± 0.09
78 | QLEKKIRFVCLSNCLAN [BRR2] | 1.32 ± 0.048
79 | QLENADTGTLDTKSVVG [RPN2] | 3.01 ± 0.082

Row | Sequence | protein stability index
80 | QLESIYFRILLPYERHM [SWI1] | 1.83 ± 0.046
81 | QLESYEYMVQYIDEMYN [RRI1] | 2.89 ± 0.075
82 | QLGLQTVIRGNSIISLE [SMX2] | 2.57 ± 0.077
83 | QLHFSLLDEEAEQSFDQ [RPO21] | 2.77 ± 0.14
84 | QLIAKNVANVSGSTEKA [SIR3] | 3.04 ± 0.07
85 | QLIPIILRQRGPGFKFV [SRB4] | 1.65 ± 0.073
86 | QLISAVLVSMGSSNKAV [YJL039C/NUP192] | 1.69 ± 0.14
87 | QLKHTKLALAENDTNMN [SMC4] | 3.12 ± 0.097
88 | QLLTPGSKISSNDLDKF [YGL172W/NUP49] | 2.85 ± 0.084
89 | QLPVGFKNMGNTCYLNA [UBP6] | 1.76 ± 0.079
90 | QLQKILESLKPIDDTMT [MTW1] | 2.86 ± 0.058
91 | QMEDMEESINEFKSIEI [SMC4] | 3.4 ± 0.11
92 | QMIELNRQICLVQKTVQ [GRR1] | 2.56 ± 0.055
93 | QNAAANAEAKGLDATKL [RPL17A] | 3.39 ± 0.24
94 | QNFAEEDDSSNSCFSDG [REC8] | 2.59 ± 0.1
95 | QNMQQSLQQMQHLQQLK [GAL11] | 2.95 ± 0.07
96 | QNSSKIVNVLSKCLNLI [SWI3] | 1.98 ± 0.048
97 | QNSYADKVTSQAVNNLI [RPP1] | 1.93 ± 0.09
98 | QNVNVPSAFNFTGNNST [YOR098C/NUP1] | 2.89 ± 0.06
99 | QPLFSTVPEYLKTADNR [PGD1] | 2.6 ± 0.099
100 | QPQQSTIGGGLFGNKPT [YGR119C/NUP57] | 2.73 ± 0.15
101 | QPSYNSAIIENAFRKEE [GAL11] | 2.68 ± 0.091
102 | QPVNPKPFLKGLVNHRV [SMX3] | 3.09 ± 0.057
103 | QQAQAQAQAQAQAQAQA [GAL11] | 3.06 ± 0.17
104 | QQDQPEQSEQPEQHQDK [RPN10] | 3.14 ± 0.054
